The values below come from article PMC3762362.

This assay has as its target Endogenous bovine Arp2/3 complex, A7MB62;P61157. In words: fluorescence anisotropy competition assay. The note with it: chain shown with the change; reporter 20 nM VVCA-A462C-AF594; mixture incubated for 10 min prior to measurement; parent: est. 6.0 nM; read off a plot.

B1: GST-VCA (GST fusion of N-WASP residues 432–505), O00401 I467A (protein)
chain: SGRDALLDQIRQGIQLKSVADGQESTPPTPAPTSGAVGALMEVMQKRSKAIHSSDEDEDEDDEEDFEDDDEWED
As for B1, the Kd is 20 nM.
